# Source: patent US20140011734A1 (Sanofi, published 2014)
# Starred links: 1 amine or outer side, 2 acyl side, 3 side chain; linkers in the order of their positions; H or OH if unused. Non-standard residues stand in square brackets, D forms with d. NH(CH2)9CO = O=C(CCCCCCCCCN[*:1])[*:2]; tBuAla = CC(C)(C)C[C@H](N)C(=O)O; Cha = N[C@@H](CC1CCCCC1)C(=O)O; Chg = N[C@H](C(=O)O)C1CCCCC1; Ac6c = NC1(C(=O)O)CCCCC1; Orn = NCCC[C@H](N)C(=O)O; Dab = NCC[C@H](N)C(=O)O; Nva = CCC[C@H](N)C(=O)O; Dap = NC[C@H](N)C(=O)O; Ac3c = NC1(C(=O)O)CC1; Aib = CC(C)(N)C(=O)O; Ahp = NCCCCCCC(=O)O; Ava = NCCCCC(=O)O; GABA = NCCCC(=O)O
# Molecular target: T1, blood platelet receptor glycoprotein Ib-IX-V complex (GPIb) (human, UniProt P07359 17-652; P13224 26-206; P14770 17-177; P40197 17-560)
# T1 construct: whole, on cells; also called GPIb complex; GPIb receptor
# Experiment: inhibition of static adhesion of human platelets to coated vWF-A1; grade C = IC50 lower than 1 µM
# Procedure: (§1) Platelet rich plasma was carefully transferred again to fresh containers, PGE1 (0.5 μg/ml, Sigma) was added and the suspension was allowed to rest for 5 min. This was followed by another centrifugation step for 15 min at 360 g. The supernatant was discarded and the cell pellets were carefully resuspended in tyrode buffer (NaCl, 137 mM (Sigma S-3014); KCl, 2.7 mM (Sigma P-9541); NaHCO₃,12 mM (Riedel deHaen 31437); NaH₂PO₄×2H₂O, 0.36 mM (Merck 6345); MgCl₂×6 H₂O, 1 mM (Sigma M-2670); Hepes, 10 mM (Sigma H-1016); glucose, 5.6 mM (Merck 8342); BSA, 0.1% (Sigma A7906)), and PGE1 (0.25 μg/ml) was added. After 5 min of resting the suspension was spun down for 15 min at 300 g. The supernatant was discarded and the pellets were carefully resuspended in TBS buffer (Tris-HCl, 50 mM (Fluka 93371); NaCl, 120 mM (Sigma S-3014); KCl, 2.7 mM (Sigma P-9541); CaCl₂, 0.05 mM (Sigma C-3306); MgCl₂×6 H₂O, 2 mM (Sigma M-2670); BSA, 0.1% (Sigma A7906); pH 7.4). The platelet count was adjusted to 2×10⁵ cells/μl, and the suspensions from individual donors were pooled at this stage. The platelets were allowed to rest for 30 min at room temperature before calcein AM (2.5 μM per 2×10⁵ cells/pi (Molecular Probes C-3099)) was added. This was followed by 15 min incubation in the dark. Cells were diluted to 5×10⁴ cells/μl and ReoPro (3 μg/ml (Centocor B. V., Leiden, N L)) was added, followed by a 10 min incubation period in the dark before adding the platelets to the assay plates.
# (§2) 96 well plates (Greiner hb, black, clear bottom, F, 655097) were coated with human recombinant vWF-A1 domain (1.5 μg/well, AA 475-706, expressed in E. coli) in Tris buffer (pH 7.4; Tris-HCl, 25 mM; NaCl, 150 mM) and incubated for 1 h at room temperature. After washing the wells 3× with TBS, blocking buffer (TBS with 5% BSA) was added followed by an incubation for 1 h. The wells were washed again 3× with TBS before 200 μl TBS were added to each well, preventing them from drying out. TBS was flicked out and serial dilutions of the test compound were added. The washed and calcein AM labeled thrombocytes were added to the wells (2.5×10⁶ cells/well). Following an adhesion period of 1.5 h in the dark the wells were washed 3× with TBS. Measurement of fluorescence per well was performed in a SpectraMax M5 reader (Molecular Devices). From the raw data % inhibition and IC₅₀ values were calculated.
# T1 sequence (P07359 17-652, chain 1 of 4): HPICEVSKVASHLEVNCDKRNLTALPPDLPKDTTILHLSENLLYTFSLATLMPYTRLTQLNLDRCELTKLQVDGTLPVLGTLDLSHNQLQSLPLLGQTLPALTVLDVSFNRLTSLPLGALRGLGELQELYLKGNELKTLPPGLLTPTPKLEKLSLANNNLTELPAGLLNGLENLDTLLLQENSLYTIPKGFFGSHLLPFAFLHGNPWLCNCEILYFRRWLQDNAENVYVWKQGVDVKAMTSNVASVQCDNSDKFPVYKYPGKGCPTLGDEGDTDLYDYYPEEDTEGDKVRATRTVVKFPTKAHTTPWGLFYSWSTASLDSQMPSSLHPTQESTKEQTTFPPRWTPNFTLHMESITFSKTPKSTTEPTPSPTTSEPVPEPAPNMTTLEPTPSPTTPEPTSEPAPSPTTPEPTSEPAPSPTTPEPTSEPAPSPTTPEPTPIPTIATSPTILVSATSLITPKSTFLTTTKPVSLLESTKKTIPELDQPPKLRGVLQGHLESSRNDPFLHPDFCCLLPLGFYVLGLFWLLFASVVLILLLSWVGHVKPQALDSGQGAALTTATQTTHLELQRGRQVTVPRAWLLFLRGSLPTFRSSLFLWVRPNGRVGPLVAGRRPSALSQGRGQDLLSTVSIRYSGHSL
# T1 sequence (P13224 26-206, chain 2 of 4): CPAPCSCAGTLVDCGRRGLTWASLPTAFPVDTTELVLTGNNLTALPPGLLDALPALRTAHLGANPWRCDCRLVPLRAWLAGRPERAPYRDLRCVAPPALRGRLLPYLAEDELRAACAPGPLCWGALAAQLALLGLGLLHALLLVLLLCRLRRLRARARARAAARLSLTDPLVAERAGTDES
# T1 sequence (P14770 17-177, chain 3 of 4): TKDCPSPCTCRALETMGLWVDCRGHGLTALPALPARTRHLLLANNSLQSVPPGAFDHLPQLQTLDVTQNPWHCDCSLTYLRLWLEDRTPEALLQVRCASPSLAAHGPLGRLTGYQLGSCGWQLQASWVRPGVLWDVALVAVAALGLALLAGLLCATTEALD
# T1 sequence (P40197 17-560, chain 4 of 4): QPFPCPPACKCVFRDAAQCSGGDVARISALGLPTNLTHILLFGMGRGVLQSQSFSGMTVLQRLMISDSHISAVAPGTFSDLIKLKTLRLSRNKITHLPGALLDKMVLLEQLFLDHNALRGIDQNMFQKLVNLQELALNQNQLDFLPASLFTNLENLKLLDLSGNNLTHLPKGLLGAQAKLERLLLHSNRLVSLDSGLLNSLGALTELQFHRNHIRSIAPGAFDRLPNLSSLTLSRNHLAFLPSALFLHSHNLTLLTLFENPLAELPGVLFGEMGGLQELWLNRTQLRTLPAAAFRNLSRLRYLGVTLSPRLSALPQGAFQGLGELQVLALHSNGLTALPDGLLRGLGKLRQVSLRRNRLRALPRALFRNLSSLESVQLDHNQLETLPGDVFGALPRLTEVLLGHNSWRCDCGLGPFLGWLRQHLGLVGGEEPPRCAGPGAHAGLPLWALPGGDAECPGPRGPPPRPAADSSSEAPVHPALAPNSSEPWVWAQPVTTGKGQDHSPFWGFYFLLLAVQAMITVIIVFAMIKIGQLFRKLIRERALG
row,IC50,Binder
1,< 1 µM,cyclo(LHNL[Ahp]TERLA) (SMILES CC(C)C[C@@H]1NC(=O)[C@H](C)NC(=O)[C@H](CC(C)C)NC(=O)[C@H](CCCNC(=N)N)NC(=O)[C@H](CCC(=O)O)NC(=O)[C@H]([C@@H](C)O)NC(=O)CCCCCCNC(=O)[C@H](CC(C)C)NC(=O)[C@H](CC(N)=O)NC(=O)[C@H](Cc2c[nH]cn2)NC1=O) [Cyclo[Leu-His-Asn-Leu-NH-(CH2)6-CO-Thr-Glu-Arg-Leu-Ala]]
2,< 1 µM,cyclo([Nva]HNL[Ahp]TERMA) (SMILES CCC[C@@H]1NC(=O)[C@H](C)NC(=O)[C@H](CCSC)NC(=O)[C@H](CCCNC(=N)N)NC(=O)[C@H](CCC(=O)O)NC(=O)[C@H]([C@@H](C)O)NC(=O)CCCCCCNC(=O)[C@H](CC(C)C)NC(=O)[C@H](CC(N)=O)NC(=O)[C@H](Cc2c[nH]cn2)NC1=O) [Cyclo[Nva-His-Asn-Leu-NH-(CH2)6-CO-Thr-Glu-Arg-Met-Ala]]
3,< 1 µM,cyclo(LHNL[Ahp]TE[Orn]MA) (SMILES CSCC[C@@H]1NC(=O)[C@H](CCCN)NC(=O)[C@H](CCC(=O)O)NC(=O)[C@H]([C@@H](C)O)NC(=O)CCCCCCNC(=O)[C@H](CC(C)C)NC(=O)[C@H](CC(N)=O)NC(=O)[C@H](Cc2c[nH]cn2)NC(=O)[C@H](CC(C)C)NC(=O)[C@H](C)NC1=O) [Cyclo[Leu-His-Asn-Leu-NH-(CH2)6-CO-Thr-Glu-Orn-Met-Ala]]
4,< 1 µM,cyclo(LHNL[Ahp]TERM[Dap]) (SMILES CSCC[C@@H]1NC(=O)[C@H](CCCNC(=N)N)NC(=O)[C@H](CCC(=O)O)NC(=O)[C@H]([C@@H](C)O)NC(=O)CCCCCCNC(=O)[C@H](CC(C)C)NC(=O)[C@H](CC(N)=O)NC(=O)[C@H](Cc2c[nH]cn2)NC(=O)[C@H](CC(C)C)NC(=O)[C@H](CN)NC1=O) [Cyclo[Leu-His-Asn-Leu-NH-(CH2)6-CO-Thr-Glu-Arg-Met-Dpr]]
5,< 1 µM,cyclo([tBuAla]HNL[Ahp]TERMA) [Cyclo[Npg-His-Asn-Leu-NH-(CH2)6-CO-Thr-Glu-Arg-Met-Ala]]

# The remaining lines, values behind:
row,Binder,IC50
1,cyclo([Cha]HNL[Ahp]TERMA) (SMILES CSCC[C@@H]1NC(=O)[C@H](CCCNC(=N)N)NC(=O)[C@H](CCC(=O)O)NC(=O)[C@H]([C@@H](C)O)NC(=O)CCCCCCNC(=O)[C@H](CC(C)C)NC(=O)[C@H](CC(N)=O)NC(=O)[C@H](Cc2c[nH]cn2)NC(=O)[C@H](CC2CCCCC2)NC(=O)[C@H](C)NC1=O) [Cyclo[Cha-His-Asn-Leu-NH-(CH2)6-CO-Thr-Glu-Arg-Met-Ala]],< 1 µM
2,cyclo(LHNL[Ahp][Dab]ERMA) (SMILES CSCC[C@@H]1NC(=O)[C@H](CCCNC(=N)N)NC(=O)[C@H](CCC(=O)O)NC(=O)[C@H](CCN)NC(=O)CCCCCCNC(=O)[C@H](CC(C)C)NC(=O)[C@H](CC(N)=O)NC(=O)[C@H](Cc2c[nH]cn2)NC(=O)[C@H](CC(C)C)NC(=O)[C@H](C)NC1=O) [Cyclo[Leu-His-Asn-Leu-NH-(CH2)6-CO-Dbu-Glu-Arg-Met-Ala]],< 1 µM
3,cyclo(LHNL[Ahp]NERMA) (SMILES CSCC[C@@H]1NC(=O)[C@H](CCCNC(=N)N)NC(=O)[C@H](CCC(=O)O)NC(=O)[C@H](CC(N)=O)NC(=O)CCCCCCNC(=O)[C@H](CC(C)C)NC(=O)[C@H](CC(N)=O)NC(=O)[C@H](Cc2c[nH]cn2)NC(=O)[C@H](CC(C)C)NC(=O)[C@H](C)NC1=O) [Cyclo[Leu-His-Asn-Leu-NH-(CH2)6-CO-Asn-Glu-Arg-Met-Ala]],< 1 µM
4,cyclo(LHNL[Ahp]TERQA) (SMILES CC(C)C[C@@H]1NC(=O)[C@H](C)NC(=O)[C@H](CCC(N)=O)NC(=O)[C@H](CCCNC(=N)N)NC(=O)[C@H](CCC(=O)O)NC(=O)[C@H]([C@@H](C)O)NC(=O)CCCCCCNC(=O)[C@H](CC(C)C)NC(=O)[C@H](CC(N)=O)NC(=O)[C@H](Cc2c[nH]cn2)NC1=O) [Cyclo[Leu-His-Asn-Leu-NH-(CH2)6-CO-Thr-Glu-Arg-Gln-Ala]],< 1 µM
5,cyclo(LHNL[Ahp]QERMA) (SMILES CSCC[C@@H]1NC(=O)[C@H](CCCNC(=N)N)NC(=O)[C@H](CCC(=O)O)NC(=O)[C@H](CCC(N)=O)NC(=O)CCCCCCNC(=O)[C@H](CC(C)C)NC(=O)[C@H](CC(N)=O)NC(=O)[C@H](Cc2c[nH]cn2)NC(=O)[C@H](CC(C)C)NC(=O)[C@H](C)NC1=O) [Cyclo[Leu-His-Asn-Leu-NH-(CH2)6-CO-Gln-Glu-Arg-Met-Ala]],< 1 µM
6,cyclo(LHNL[Ahp]TERAA) (SMILES CC(C)C[C@@H]1NC(=O)[C@H](C)NC(=O)[C@H](C)NC(=O)[C@H](CCCNC(=N)N)NC(=O)[C@H](CCC(=O)O)NC(=O)[C@H]([C@@H](C)O)NC(=O)CCCCCCNC(=O)[C@H](CC(C)C)NC(=O)[C@H](CC(N)=O)NC(=O)[C@H](Cc2c[nH]cn2)NC1=O) [Cyclo[Leu-His-Asn-Leu-NH-(CH2)6-CO-Thr-Glu-Arg-Ala-Ala]],< 1 µM
7,cyclo(LHNL[Ahp]TER[Cha]A) (SMILES CC(C)C[C@@H]1NC(=O)[C@H](C)NC(=O)[C@H](CC2CCCCC2)NC(=O)[C@H](CCCNC(=N)N)NC(=O)[C@H](CCC(=O)O)NC(=O)[C@H]([C@@H](C)O)NC(=O)CCCCCCNC(=O)[C@H](CC(C)C)NC(=O)[C@H](CC(N)=O)NC(=O)[C@H](Cc2c[nH]cn2)NC1=O) [Cyclo[Leu-His-Asn-Leu-NH-(CH2)6-CO-Thr-Glu-Arg-Cha-Ala]],< 1 µM

# Molecular target: T1, blood platelet receptor glycoprotein …
# Experiment: inhibition of static adhesion of human platelets to coated vWF-A1; grade B = IC50 between 1 µM and 10 µM
# Procedure: as §1, §2
row,IC50,Binder
1,1 to 10 µM,cyclo(LHNL[Dap][GABA]TERMA) (SMILES CSCC[C@@H]1NC(=O)[C@H](CCCNC(=N)N)NC(=O)[C@H](CCC(=O)O)NC(=O)[C@H]([C@@H](C)O)NC(=O)CCCNC(=O)[C@H](CN)NC(=O)[C@H](CC(C)C)NC(=O)[C@H](CC(N)=O)NC(=O)[C@H](Cc2c[nH]cn2)NC(=O)[C@H](CC(C)C)NC(=O)[C@H](C)NC1=O) [Cyclo[Leu-His-Asn-Leu-Dpr-NH-(CH2)3-CO-Thr-Glu-Arg-Met-Ala]]
2,1 to 10 µM,cyclo(LHNL[NH(CH2)9CO]TERMA) (SMILES CSCC[C@@H]1NC(=O)[C@H](CCCNC(=N)N)NC(=O)[C@H](CCC(=O)O)NC(=O)[C@H]([C@@H](C)O)NC(=O)CCCCCCCCCNC(=O)[C@H](CC(C)C)NC(=O)[C@H](CC(N)=O)NC(=O)[C@H](Cc2c[nH]cn2)NC(=O)[C@H](CC(C)C)NC(=O)[C@H](C)NC1=O) [Cyclo[Leu-His-Asn-Leu-NH-(CH2)9-CO-Thr-Glu-Arg-Met-Ala]]
3,1 to 10 µM,cyclo([Ac6c]HNL[Ahp]TERMA) [Cyclo[Ac6-His-Asn-Leu-NH-(CH2)6-CO-Thr-Glu-Arg-Met-Ala]]
4,1 to 10 µM,cyclo(LHNL[GABA][Ac3c]TERMA) (SMILES CSCC[C@@H]1NC(=O)[C@H](CCCNC(=N)N)NC(=O)[C@H](CCC(=O)O)NC(=O)[C@H]([C@@H](C)O)NC(=O)C2(CC2)NC(=O)CCCNC(=O)[C@H](CC(C)C)NC(=O)[C@H](CC(N)=O)NC(=O)[C@H](Cc2c[nH]cn2)NC(=O)[C@H](CC(C)C)NC(=O)[C@H](C)NC1=O) [Cyclo[Leu-His-Asn-Leu-NH-(CH2)3-CO-Ac3-Thr-Glu-Arg-Met-Ala]]
5,1 to 10 µM,cyclo(LHNLG[Ava]TERMA) (SMILES CSCC[C@@H]1NC(=O)[C@H](CCCNC(=N)N)NC(=O)[C@H](CCC(=O)O)NC(=O)[C@H]([C@@H](C)O)NC(=O)CCCCNC(=O)CNC(=O)[C@H](CC(C)C)NC(=O)[C@H](CC(N)=O)NC(=O)[C@H](Cc2c[nH]cn2)NC(=O)[C@H](CC(C)C)NC(=O)[C@H](C)NC1=O) [Cyclo[Leu-His-Asn-Leu-Gly-NH-(CH2)4-CO-Thr-Glu-Arg-Met-Ala]]
6,1 to 10 µM,cyclo(LHNL[Ahp]TER[Chg]A) (SMILES CC(C)C[C@@H]1NC(=O)[C@H](C)NC(=O)[C@H](C2CCCCC2)NC(=O)[C@H](CCCNC(=N)N)NC(=O)[C@H](CCC(=O)O)NC(=O)[C@H]([C@@H](C)O)NC(=O)CCCCCCNC(=O)[C@H](CC(C)C)NC(=O)[C@H](CC(N)=O)NC(=O)[C@H](Cc2c[nH]cn2)NC1=O) [Cyclo[Leu-His-Asn-Leu-NH-(CH2)6-CO-Thr-Glu-Arg-Chg-Ala]]
7,1 to 10 µM,cyclo(LHNL[GABA][Aib]TERMA) (SMILES CSCC[C@@H]1NC(=O)[C@H](CCCNC(=N)N)NC(=O)[C@H](CCC(=O)O)NC(=O)[C@H]([C@@H](C)O)NC(=O)C(C)(C)NC(=O)CCCNC(=O)[C@H](CC(C)C)NC(=O)[C@H](CC(N)=O)NC(=O)[C@H](Cc2c[nH]cn2)NC(=O)[C@H](CC(C)C)NC(=O)[C@H](C)NC1=O) [Cyclo[Leu-His-Asn-Leu-NH-(CH2)3-CO-Aib-Thr-Glu-Arg-Met-Ala]]
